In this assay the target is endogenous PABPC1 of HEK 293T cells (human (endogenous in HEK 293T)) (UniProt P11940).
Chain of UniProt P11940 (P11940 whole entry): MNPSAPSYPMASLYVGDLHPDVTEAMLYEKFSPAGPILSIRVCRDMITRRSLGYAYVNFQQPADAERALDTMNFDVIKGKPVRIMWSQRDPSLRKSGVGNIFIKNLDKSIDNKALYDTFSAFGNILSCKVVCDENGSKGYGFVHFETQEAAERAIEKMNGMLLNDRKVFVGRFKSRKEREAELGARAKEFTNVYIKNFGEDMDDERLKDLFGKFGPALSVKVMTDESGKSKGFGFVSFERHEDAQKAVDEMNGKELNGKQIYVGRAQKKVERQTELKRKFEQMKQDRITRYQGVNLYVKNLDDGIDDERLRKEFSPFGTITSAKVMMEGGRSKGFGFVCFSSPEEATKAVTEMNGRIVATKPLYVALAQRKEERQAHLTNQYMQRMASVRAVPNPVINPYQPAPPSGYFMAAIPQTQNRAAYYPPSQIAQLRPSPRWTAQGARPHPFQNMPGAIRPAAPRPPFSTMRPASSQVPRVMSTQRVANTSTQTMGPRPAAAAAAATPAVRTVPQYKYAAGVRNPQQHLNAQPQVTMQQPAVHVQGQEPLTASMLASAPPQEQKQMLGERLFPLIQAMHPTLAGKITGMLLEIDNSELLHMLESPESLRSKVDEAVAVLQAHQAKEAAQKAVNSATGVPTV

In the case of “eIF4GI isoform e fused to MS2-HA (eIF4GIe-MS2) (natural protein)”, the miniμ ter310 construct A reporter mRNA level (RT-qPCR) relative to LacZ-MS2 on tethering of eIF4GIe-MS2 in HeLa cells worked out at 4 fold.
Take “eIF4GI isoform d fused to MS2-HA (eIF4GId-MS2) (natural protein)”: the miniμ ter310 construct A reporter mRNA level (RT-qPCR) relative to LacZ-MS2 on tethering of eIF4GId-MS2 in HeLa cells is 4 fold.

These data come from paper PMC4141738.
